From US20160024487A1 (Novo Nordisk, published 2016) come the findings set out here.

For this assay, the target named is Human plasma purified α-thrombin (human, UniProt P00734 328-622). The assay can be described thus: cell-based or functional assay.

Where no end group is shown, it is not given here. The star is where a group is joined. Dnp = O=[N+]([O-])c1ccc(*)c([N+](=O)[O-])c1; 2Abz = Nc1ccccc1C(=O)O

B1: Lys(Dnp)-DFLAEGGGVRIVGG-Lys(Abz) (peptide)
peptide: K(Dnp)DFLAEGGGVRIVGGK(2Abz)
Take B1: the “Fold-Improved (FpA)” value was 1 fold and the “Fold-Improved (PAR-1)” value worked out at 0.1 fold.
